Test results taken from patent US6680291.

T1: human CNTF receptor alpha-component on MG87/CNTFR fibroblasts (human, UniProt P26992 23-342)
T1 construct: whole, on cells; Mouse fibroblast cell line transfected with the human CNTF alpha receptor gene; also called CNTFRalpha; MG87/huCNTFR
T1 sequence (looked up): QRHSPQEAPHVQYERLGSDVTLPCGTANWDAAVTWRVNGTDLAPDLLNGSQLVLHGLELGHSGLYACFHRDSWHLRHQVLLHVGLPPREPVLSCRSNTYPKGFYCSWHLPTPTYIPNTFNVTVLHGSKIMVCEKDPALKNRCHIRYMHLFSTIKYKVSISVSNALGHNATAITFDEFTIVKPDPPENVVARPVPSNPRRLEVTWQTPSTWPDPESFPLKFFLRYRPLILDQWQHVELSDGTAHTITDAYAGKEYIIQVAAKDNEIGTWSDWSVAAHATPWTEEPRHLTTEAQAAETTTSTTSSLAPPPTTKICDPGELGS

T2: rat CNTF receptor on rat superior cervical ganglia (SCG) neurons (rat, UniProt Q08406 23-342)
T2 construct: whole, on cells; The neurons carry the endogenous receptor, and the other receptor components may also be present; also called rat receptor
T2 sequence (looked up): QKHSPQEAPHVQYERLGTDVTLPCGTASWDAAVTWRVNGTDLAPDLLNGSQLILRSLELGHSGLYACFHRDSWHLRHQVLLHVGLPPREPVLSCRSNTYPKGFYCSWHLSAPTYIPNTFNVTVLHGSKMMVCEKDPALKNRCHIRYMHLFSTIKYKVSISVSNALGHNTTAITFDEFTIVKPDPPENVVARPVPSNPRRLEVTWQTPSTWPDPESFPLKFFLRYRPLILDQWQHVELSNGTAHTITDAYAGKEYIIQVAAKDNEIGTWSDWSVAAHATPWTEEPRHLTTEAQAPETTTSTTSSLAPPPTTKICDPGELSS


Columns and labels:
[1] = target: T1, human CNTF receptor alpha-component on …; assay: competition with 125I-rat CNTF on MG87/CNTFR cells
Protocol: (§1) Binding was performed directly on cell monolayers. Cells in culture wells were washed once with assay buffer consisting of phosphate buffered saline (PBS; pH 7.4), 0.1 mM bacitracin, 1 mM PMSF, 1 µg/ml leupeptin, and 1 mg/ml BSA. […] Non-specific binding was determined in the presence of 1,000-fold excess of unlabelled CNTF. Specific binding towards MG87/CNTFR was 80–90%. Data were analyzed using the […] program (ISI, Philadelphia, Pa.).

[2] = target: T2, rat CNTF receptor on rat superior …; assay: competition with 125I-rat CNTF on rat SCG neurons
Protocol: Growth medium consisted of Ham's nutrient mixture F12 with 10% heat-inactivated fetal bovine serum (Hyclone), nerve growth factor (NGF) (100 ng/ml), penicillin (50 U/ml) and streptomycin (50 µg/ml). Cultures were maintained at 37° C. in a humidified 95% air/5% CO_2 atmosphere. Ganglion non-neuronal cells were eliminated by treatment with araC (10 µM) on days 1 and 3 of culture. Cultures were fed 3 times/week and were routinely used for binding assays within 2 weeks.
as §1

[3] = target: T1, human CNTF receptor alpha-component on …; assay: competition binding experiments, data not shown; cells not given

Binder | IC50 [1] [nM] | IC50 [2] [nM] | binding result [3] | further results
RPN189 (ligand, Chimeric CNTF) MAFAEQTPLTLHRRDLCSRSIWLARKIRSDLTALMESYVKHQGLNKNINLDSVDGVPVASTDRWSEMTEAERLQENLQAYRTFQGMLTKLLEDQRVHFTPTEGDFHQAIHTLMLQVSAFAYQLEELMVLLEQKIPENEADGMPATVGDGGLFEKKLWGLKVLQELSQWTVRSIHDLRFISSHQTGIPARGSHYIANNKKM | – | – | binds | –
RPN186 (ligand, Chimeric CNTF) MAFTEHSPLTPHRRDLCSRSIWLARKIRSDLTALTESYVKHQGLNKNINLDSVDGVPVASTDRWSEMTEAERLQENLQAYRTFQGMLTKLLEDQRVHFTPTEGDFHQAIHTLMLQVSAFAYQLEELMVLLEQKIPENEADGMPATVGDGGLFEKKLWGLKVLQELSQWTVRSIHDLRVISSHQMGISALESHYGAKDKQM | – | – | binds | –
RPN192 (ligand, Chimeric CNTF) MAFTEHSPLTPHRRDLCSRSIWLARKIRSDLTALTESYVKHQGLNKNINLDSADGMPVASTDQWSELTEAERLQENLQAYRTFQGMLTKLLEDQRVHFTPTEGDFHQAIHTLMLQVSAFAYQLEELMVLLEQKIPENEADGMPATVGDGGLFEKKLWGLKVLQELSQWTVRSIHDLRFISSHQTGIPARGSHYIANNKKM | – | – | binds | –
recombinant human CNTF (ligand, also called rHCNTF; hCNTF) MAFTEHSPLTPHRRDLCSRSIWLARKIRSDLTALTESYVKHQGLNKNINLDSADGMPVASTDQWSELTEAERLQENLQAYRTFHVLLARLLEDQQVHFTPTEGDFHQAIHTLLLQVAAFAYQIEELMILLEYKIPRNEADGMPINVGDGGLFEKKLWGLKVLQELSQWTVRSIHDLRFISSHQTGIPARGSHYIANNKKM | 30 | 25 | – | fold less potent than rat CNTF [1]: 12 fold; fold less potent than unlabelled rat CNTF [2]: 90 fold
RPN228 (ligand, Expressed in E. coli; also called RG228; rHCNTF,63QR) MAFTEHSPLTPHRRDLCSRSIWLARKIRSDLTALTESYVKHQGLNKNINLDSADGMPVASTDRWSELTEAERLQENLQAYRTFHVLLARLLEDQQVHFTPTEGDFHQAIHTLLLQVAAFAYQIEELMILLEYKIPRNEADGMPINVGDGGLFEKKLWGLKVLQELSQWTVRSIHDLRFISSHQTGIPARGSHYIANNKKM | 5.6 | – | – | –
RPN219 (ligand, Expressed in E. coli; also called CNTF RPN219) MAFTEHSPLTPHRRDLCSRSIWLARKIRSDLTALTESYVKHQGLNKNINLDSVDGVPVASTDRWSEMTEAERLQENLQAYRTFHVLLARLLEDQQVHFTPTEGDFHQAIHTLLLQVAAFAYQIEELMILLEYKIPRNEADGMPINVGDGGLFEKKLWGLKVLQELSQWTVRSIHDLRFISSHQTGIPARGSHYIANNKKM | – | 0.3 | – | –

Second part, led by results:

IC50 [1] [nM] | IC50 [2] [nM] | binding result [3] | Binder | further results
2.8 | 0.28 | – | recombinant rat CNTF (ligand, also called unlabelled rat CNTF) MAFAEQTPLTLHRRDLCSRSIWLARKIRSDLTALMESYVKHQGLNKNINLDSVDGVPVASTDRWSEMTEAERLQENLQAYRTFQGMLTKLLEDQRVHFTPTEGDFHQAIHTLMLQVSAFAYQLEELMVLLEQKIPENEADGMPATVGDGGLFEKKLWGLKVLQELSQWTVRSIHDLRVISSHQMGISALESHYGAKDKQM | –
– | – | binds | RPN187 (ligand, Chimeric CNTF) MAFAEQTPLTLHRRDLCSRSIWLARKIRSDLTALMESYVKHQGLNKNINLDSADGMPVASTDQWSELTEAERLQENLQAYRTFHVLLARLLEDQQVHFTPTEGDFHQAIHTLLLQVAAFAYQIEELMILLEYKIPRNEADGMPINVGDGGLFEKKLWGLKVLQELSQWTVRSIHDLRFISSHQTGIPARGSHYIANNKKM | –
– | – | binds | RPN218 (ligand, Chimeric CNTF) MAFTEHSPLTPHRRDLCSRSIWLARKIRSDLTALMESYVKHQGLNKNINLDSVDGVPVASTDRWSEMTEAERLQENLQAYRTFHVLLARLLEDQQVHFTPTEGDFHQAIHTLLLQVAAFAYQIEELMILLEYKIPRNEADGMPINVGDGGLFEKKLWGLKVLQELSQWTVRSIHDLRFISSHQTGIPARGSHYIANNKKM | –
– | – | binds | RPN222 (ligand, Chimeric CNTF) MAFTEHSPLTPHRRDLCSRSIWLARKIRSDLTALTESYVKHQGLNKNINLDSVDGMPVASTDQWSEMTEAERLQENLQAYRTFHVLLARLLEDQQVHFTPTEGDFHQAIHTLLLQVAAFAYQIEELMILLEYKIPRNEADGMPINVGDGGLFEKKLWGLKVLQELSQWTVRSIHDLRFISSHQTGIPARGSHYIANNKKM | –
